According to patent publication CN118638216A:

Biological target: 新型冠状病毒SARS-CoV-2和SARS-CoV以及动物来源的SARS-like冠状病毒S1
Assay: ELISA, S1 proteins coated at 2 μg/mL, antibody titrated from 10 μg/mL

B1: 全人源广谱抗sarbecovirus和/或新冠突变株的抗体(VSCM8-83) (antibody, V domains shown)
VH: EVQLVEFGGGLVQPGGSLRLSCAASGFAVSSNYMSWVRQAPGKGLEWVSVIYGDGTTYYGDSVKGRFTISRHNSKNTLYLQMNSLRTEDTAVYYCARIVSEAFDLWGQGTMVTVSS
VL: DIQMTQSPSTLSASVGDRVTITCRASQSIGRWLAWYQQKPGKAPKLLIYMASILESGVPSRFSGSGSATEFTLTISSLQPDDFATYYCQQYNGYSQYTFGQGTKLEIKR
  EC50: 0.0397 to 0.0749 µg/mL
